Results: the Human Domainome abundance scans (Beltran et al. 2025)

B1: POU domain, class 4, transcription factor 1, residues 266 to 347; numbered along this chain, Q01851 (parent)
chain: RELEAFAERFKQRRIKLGVTQADVGSALANLKIPGVGSLSQSTICRFESLTLSHNNMIALKPILQAWLEEAEGAQREKMNKP

Variants of: B1
Experiment: abundance fitness (aPCA) (normalised: wild type 0, dead -1); higher = more abundant; growth selection in yeast, the domain comes from the species named
Details: Homo sapiens

Abundance fitness of substitutions, site by site:
A7: K -0.489 | F -0.721 | P -0.525 | Y -0.708 | T -0.138 | S -0.203 | E -0.884 | R -0.594 | G -0.594 | H -0.668 | V 0.007 | N -0.582 | Q -0.712 | C -0.018 | L -0.656 | M -0.395 | D -1.11
F10: G -0.897 | I -0.676 | K -0.9 | W -0.237 | L -0.515 | R -0.996 | S -0.914 | A -0.762 | T -0.853 | Q -1.04 | H -0.92 | E -0.916 | Y -0.599 | D -0.804 | N -0.822 | C -0.867 | M -0.56 | P -0.908
L3: Y -0.107 | S -0.374 | V -0.053 | R -0.622 | T -0.26 | W -0.352
R9: H -0.003 | M 0.005 | N 0.012 | D -0.122 | F -0.178 | T 0.058 | L 0.061 | G -0.015 | K -0.143 | W -0.154 | V -0.047 | E -0.019 | C -0.007 | Y -0.035 | I -0.004 | Q -0.043
A5: I 0.184 | G -0.039 | T -0.065 | P -0.451 | Q 0.047 | L 0.037 | F 0.042 | C -0.162 | D -0.043 | V -0.06 | K 0.042 | H -0.063 | M 0.016 | R 0.006 | N 0.106 | S -0.005 | Y -0.171
K11: W -0.707 | N -0.422 | P -0.833 | Q -0.107 | T -0.017 | E -0.476 | A -0.023 | G -0.465 | S -0.104 | V -0.142 | L -0.406 | M -0.117 | F -0.627 | H 0.175 | I -0.293 | Y -0.642 | R 0.023
R13: D -0.253 | E -0.065 | A -0.026 | C -0.369 | F -0.203 | G 0.013
Q12: R -0.14 | K -0.029 | E 0.015 | I -0.144 | S -0.06 | V -0.117 | G -0.205 | N 0.031 | A -0.004 | Y -0.13 | M -0.034 | F -0.133 | T -0.021 | L -0.078 | P -0.896 | H -0.097 | D -0.027 | W -0.339 | C -0.466
E4: H 0.108 | A -0.071 | Q -0.035 | Y -0.153 | W -0.057 | C -0.149 | F -0.054 | L -0.134 | K 0.056 | G -0.166 | P -0.361 | D -0.031 | M 0.04 | I 0.107 | R -0.065 | S -0.091 | T -0.031 | N -0.086
E8: W -0.284 | C -0.238 | P -0.749 | G -0.048 | N 0.063 | R -0.002 | V 0.015 | I -0.234 | A -0.008 | Q -0.019 | M -0.069 | L 0.018 | T -0.078 | F -0.223 | D -0.13 | S 0.014 | Y -0.017 | H -0.164
F6: S -0.516 | G -0.906 | L -0.362 | R -0.987 | I -0.318 | T -0.452 | P -0.951 | C -0.478 | Q -0.622 | E -0.359 | K -1 | D -0.442 | W -0.139 | V -0.378 | N -0.79
